Measurements as given in article PMC7911018 (2021).

Target: HER2 ectodomain-Fc (96 kDa) (human, UniProt P04626 23-652)
Assay: SPR

B1: VHH A10 (anti-HER2 nanobody) (VHH)
VHH: DVQLQASGGGFVQPGGSLRLSCAASGATSNISNMGWFRQAPGKEREFVSAISRAESRPLYYADSVKGRFTISRDNSKNTVYLQMNSLRAEDTATYYCAYMPLVRHKAYWGQGTQVTVSS
  Kd: 8.1 nM

B2: A10C (A10 CDRs grafted into the C8WT scaffold) (VHH)
VHH: DVQLQASGGGLAQPGGSLRLSCAASCDRMYWVRQAPGKGLEWVSSCDRYYADSVKGRFTISRDNAKNTLYLQMNSLKLEDTALYFCACDRGQGTQVTVSS
  Kd: 40.5 nM
